Ends that are not written are not given here. FAM = 5,6-carboxyfluorescein
Experiments:
Test in all cases: fluorescence polarisation; fluorescence anisotropy, equilibrium binding of Nrd1 CID variants to FAM-labelled NIM peptides; 10°C, 50 mM Na2HPO4, 100 mM NaCl, pH 8; 1:1 model with non-specific binding (DynaFit)
Settings in all cases: both partners purified
Nrd1 CID I130A = biological target: T1, Nrd1 CID I130A (S. cerevisiae, UniProt P53617 1-153, I130A)
T1 construct: the construct for anisotropy is made as described previously (Kubicek et al, 2012); also called CID(I130A)-His6; source: recombinant, produced and purified as described previously (Kubicek et al, 2012); plasmid with T7 promoter
T1 sequence (looked up): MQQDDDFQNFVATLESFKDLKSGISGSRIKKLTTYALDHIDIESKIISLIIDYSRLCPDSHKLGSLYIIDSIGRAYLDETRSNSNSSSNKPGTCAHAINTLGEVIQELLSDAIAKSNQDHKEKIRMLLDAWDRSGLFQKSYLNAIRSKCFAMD

Nrd1 CID I130N = biological target: T2, Nrd1 CID I130N (S. cerevisiae, UniProt P53617 1-153, I130N)
T2 construct: the construct for anisotropy is made as described previously (Kubicek et al, 2012); also called CID(I130N)-His6; source: recombinant, produced and purified as described previously (Kubicek et al, 2012); plasmid with T7 promoter
T2 sequence (looked up): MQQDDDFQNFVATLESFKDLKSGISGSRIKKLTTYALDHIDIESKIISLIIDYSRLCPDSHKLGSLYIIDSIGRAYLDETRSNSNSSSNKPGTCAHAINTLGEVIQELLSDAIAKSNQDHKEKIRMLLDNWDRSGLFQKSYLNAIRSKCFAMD

Nrd1 CID R133D = biological target: T3, Nrd1 CID R133D (S. cerevisiae, UniProt P53617 1-153, R133D)
T3 construct: the construct for anisotropy is made as described previously (Kubicek et al, 2012); also called CID(R133D)-His6; source: recombinant, produced and purified as described previously (Kubicek et al, 2012); plasmid made with QuikChange, T7 promoter
T3 sequence (looked up): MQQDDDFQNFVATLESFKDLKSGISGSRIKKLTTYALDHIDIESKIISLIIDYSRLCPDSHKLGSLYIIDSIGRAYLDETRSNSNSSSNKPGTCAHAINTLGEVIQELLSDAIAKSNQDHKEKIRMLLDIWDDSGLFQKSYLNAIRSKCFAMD

Kd (Nrd1 CID I130A): 7.6 ± 0.3 µM | Kd (Nrd1 CID I130N): 8.9 ± 0.5 µM | Kd (Nrd1 CID R133D): 2 ± 0.1 µM
B1: Sen1 NIM peptide (Sen1 aa 2,052-2,063) (peptide, UniProt Q00416 2052-2063, looked up)
peptide: {FAM}-DDDEDDYTPSIS
notes: Sen1, S. cerevisiae, fragment harbouring aa 2,052-2,063; source: synthetic peptide

From publication PMC7110113, “Termination of non‐coding transcription in yeast relies on both an RNA Pol II CTD interaction domain and a CTD‐mimicking region in Sen1” (The EMBO Journal, 2020)
